Measured values: PMC6255864

Experiments:
[1] = target: T1, annexin-V, membrane-bound trimeric form (A5) (human), P08758; assay: HS-AFM line scanning (HS-AFM-LS); line scanned across one protomer of the non-p6 trimer in the A5 p6-lattice, 2.4 ms per line; dwell-times in each orientation before rotation; conditions: remark: other sources report otherwise
T1 chain: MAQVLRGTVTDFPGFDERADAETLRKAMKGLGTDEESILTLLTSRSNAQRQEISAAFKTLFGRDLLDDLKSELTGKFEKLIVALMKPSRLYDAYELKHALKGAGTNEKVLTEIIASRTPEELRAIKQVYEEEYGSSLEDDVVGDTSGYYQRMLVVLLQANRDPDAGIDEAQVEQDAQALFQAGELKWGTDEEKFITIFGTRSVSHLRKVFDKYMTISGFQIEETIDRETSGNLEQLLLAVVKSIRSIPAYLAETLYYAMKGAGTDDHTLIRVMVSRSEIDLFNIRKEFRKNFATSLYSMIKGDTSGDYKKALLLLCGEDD

[2] = target: T1, annexin-V, membrane-bound trimeric form …; assay: HS-AFM height spectroscopy (HS-AFM-HS); tip on one protomer of the rotating non-p6 trimer at the centre of the hexagonal A5 p6-lattice; dwell-times in the 0° and 60° orientations; captured at 655 kHz; conditions: remark: other sources report otherwise

- average dwell-time in the 0° or 60° orientation before rotation [1]: 35 ms
- peak of the distribution of state dwell-times before rotation (Gaussian 1 of 3) [1]: 13 ms
- peak of the distribution of state dwell-times before rotation (Gaussian 2 of 3) [1]: 41 ms
- peak of the distribution of state dwell-times before rotation (Gaussian 3 of 3) [1]: 96 ms
- average dwell-time in the 0° or 60° orientation before rotation [2]: 26 ms
B1: annexin-V, membrane-bound trimeric form (A5), P08758 1-320 (natural protein)
chain: MAQVLRGTVTDFPGFDERADAETLRKAMKGLGTDEESILTLLTSRSNAQRQEISAAFKTLFGRDLLDDLKSELTGKFEKLIVALMKPSRLYDAYELKHALKGAGTNEKVLTEIIASRTPEELRAIKQVYEEEYGSSLEDDVVGDTSGYYQRMLVVLLQANRDPDAGIDEAQVEQDAQALFQAGELKWGTDEEKFITIFGTRSVSHLRKVFDKYMTISGFQIEETIDRETSGNLEQLLLAVVKSIRSIPAYLAETLYYAMKGAGTDDHTLIRVMVSRSEIDLFNIRKEFRKNFATSLYSMIKGDTSGDYKKALLLLCGEDD
